One molecule from patent US20200231654A1 (published 2020) can be followed below.

The term IC50 denotes the concentration that gives 50% inhibition. The EC50 is the concentration that produces a half-maximal response. High values mean lower potency in that assay, low ones higher potency in that assay.

Bounds are passed on as bounds.

For experiment [1], the target named is active hMMP-9(cat)_His6 (UniProt P14780 107-449). Description: enzyme inhibition; substrate gelatin.
Experiment [2] has as its target MT2-MMP, Catalytic Domain, Human, Recombinant, E. coli (human, UniProt P51511 132-304). Description: enzyme inhibition.
For experiment [3], the target named is Protein C from human plasma (human, UniProt P04070 43-461). Kind of experiment: substrate peptide degradation inhibition.
Chain of Protein C from human plasma (P04070 43-461): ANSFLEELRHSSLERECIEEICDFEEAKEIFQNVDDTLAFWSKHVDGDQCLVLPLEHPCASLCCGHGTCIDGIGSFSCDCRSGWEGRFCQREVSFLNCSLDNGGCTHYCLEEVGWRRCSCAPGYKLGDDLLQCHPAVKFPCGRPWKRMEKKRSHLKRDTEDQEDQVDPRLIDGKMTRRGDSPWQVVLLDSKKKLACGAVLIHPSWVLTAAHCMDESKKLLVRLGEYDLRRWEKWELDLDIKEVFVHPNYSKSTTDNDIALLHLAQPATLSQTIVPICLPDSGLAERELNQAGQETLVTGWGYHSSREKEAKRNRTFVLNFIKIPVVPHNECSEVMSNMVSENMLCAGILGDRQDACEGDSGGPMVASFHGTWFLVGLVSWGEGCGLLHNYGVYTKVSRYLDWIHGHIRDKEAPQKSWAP
For experiment [4], the target named is Thrombin from human plasma (human, UniProt P00734 328-622). Description: substrate peptide degradation inhibition.
The target in experiment [5] is Trypsin from Human Pancreas (human, UniProt P07477 24-247). Kind of experiment: substrate peptide degradation inhibition.
Experiment [6] addresses T1, Chymase human recombinant expressed in Pichia pastoris (human, UniProt P23946 22-247).
T1 chain: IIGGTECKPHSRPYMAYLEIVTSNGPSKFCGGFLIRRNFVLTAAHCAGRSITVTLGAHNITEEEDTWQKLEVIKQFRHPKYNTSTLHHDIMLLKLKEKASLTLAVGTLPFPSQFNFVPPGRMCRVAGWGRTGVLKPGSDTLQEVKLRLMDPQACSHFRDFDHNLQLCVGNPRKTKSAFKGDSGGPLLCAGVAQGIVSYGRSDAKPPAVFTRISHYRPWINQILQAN
Description: substrate peptide degradation inhibition.

Experiment [7] addresses urokinase from human urine (human, UniProt P00749 21-431). Description: substrate peptide degradation inhibition.
The target of experiment [8] is recombinant human plasma kallikrein/KLKB1 Protein (human, UniProt P03952 20-638). Kind of experiment: substrate peptide degradation inhibition.
Chain of recombinant human plasma kallikrein/KLKB1 Protein (P03952 20-638): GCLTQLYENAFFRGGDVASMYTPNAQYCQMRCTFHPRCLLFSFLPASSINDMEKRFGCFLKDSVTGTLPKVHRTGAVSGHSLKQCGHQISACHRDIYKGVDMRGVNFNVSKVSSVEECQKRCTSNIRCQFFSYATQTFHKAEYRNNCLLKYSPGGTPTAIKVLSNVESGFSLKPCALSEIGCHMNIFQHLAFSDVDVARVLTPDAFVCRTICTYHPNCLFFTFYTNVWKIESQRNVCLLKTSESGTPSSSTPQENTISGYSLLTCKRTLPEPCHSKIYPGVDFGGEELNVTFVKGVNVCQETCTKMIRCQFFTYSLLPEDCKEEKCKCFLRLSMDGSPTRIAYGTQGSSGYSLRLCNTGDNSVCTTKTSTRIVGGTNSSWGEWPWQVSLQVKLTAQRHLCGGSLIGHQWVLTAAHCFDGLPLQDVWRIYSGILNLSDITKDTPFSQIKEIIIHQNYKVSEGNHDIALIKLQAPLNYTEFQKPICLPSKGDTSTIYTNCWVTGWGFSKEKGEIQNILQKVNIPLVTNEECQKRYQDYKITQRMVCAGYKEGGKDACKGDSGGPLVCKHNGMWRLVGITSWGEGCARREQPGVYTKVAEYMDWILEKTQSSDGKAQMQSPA
The target in experiment [9] is α-Chymotrypsin from human pancreas (human, UniProt P17538 19-263). Kind of experiment: substrate peptide degradation inhibition.
Chain of α-Chymotrypsin from human pancreas (P17538 19-263): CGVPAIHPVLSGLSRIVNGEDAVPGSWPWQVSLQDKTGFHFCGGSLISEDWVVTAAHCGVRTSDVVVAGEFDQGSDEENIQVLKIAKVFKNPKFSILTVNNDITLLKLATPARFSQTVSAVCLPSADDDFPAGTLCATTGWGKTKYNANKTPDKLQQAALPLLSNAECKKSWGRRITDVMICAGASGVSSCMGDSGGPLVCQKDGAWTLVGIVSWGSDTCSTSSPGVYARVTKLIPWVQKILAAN
Experiment [10] deals with Tryptase from human lung (human, UniProt Q15661 31-275). Kind of experiment: substrate peptide degradation inhibition.
Chain of Tryptase from human lung (Q15661 31-275): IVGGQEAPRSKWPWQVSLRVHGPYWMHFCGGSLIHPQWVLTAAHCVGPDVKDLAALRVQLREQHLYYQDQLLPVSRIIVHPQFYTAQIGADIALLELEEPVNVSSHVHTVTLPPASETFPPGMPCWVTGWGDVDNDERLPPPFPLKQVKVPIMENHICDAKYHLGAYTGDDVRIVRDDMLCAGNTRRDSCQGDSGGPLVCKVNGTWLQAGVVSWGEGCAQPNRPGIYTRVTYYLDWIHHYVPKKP
Experiment [11] deals with T2, Recombinant Human Matriptase/ST14 Catalytic Domain (human, UniProt Q9Y5Y6 596-855).
T2 chain: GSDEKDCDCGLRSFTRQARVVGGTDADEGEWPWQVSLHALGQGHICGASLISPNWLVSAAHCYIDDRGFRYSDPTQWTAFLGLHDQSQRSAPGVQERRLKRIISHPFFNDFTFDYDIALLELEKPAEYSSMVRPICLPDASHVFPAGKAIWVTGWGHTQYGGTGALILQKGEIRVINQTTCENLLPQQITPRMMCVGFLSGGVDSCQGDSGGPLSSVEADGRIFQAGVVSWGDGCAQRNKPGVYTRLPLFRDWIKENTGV
Kind of experiment: substrate peptide degradation inhibition.

The target in experiment [12] is T3, Neutrophil elastase (human) (human, UniProt P08246 30-247).
T3 chain: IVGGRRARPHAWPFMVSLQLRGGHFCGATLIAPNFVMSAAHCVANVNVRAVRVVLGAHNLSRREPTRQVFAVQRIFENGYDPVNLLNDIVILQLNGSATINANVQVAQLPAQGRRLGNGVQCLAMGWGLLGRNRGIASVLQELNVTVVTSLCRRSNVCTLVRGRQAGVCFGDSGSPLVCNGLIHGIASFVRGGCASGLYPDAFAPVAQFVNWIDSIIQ
Kind of experiment: substrate peptide degradation inhibition.

For experiment [13], the target named is T4, Plasmin from human plasma (human, UniProt P00747 97-810).
T4 chain: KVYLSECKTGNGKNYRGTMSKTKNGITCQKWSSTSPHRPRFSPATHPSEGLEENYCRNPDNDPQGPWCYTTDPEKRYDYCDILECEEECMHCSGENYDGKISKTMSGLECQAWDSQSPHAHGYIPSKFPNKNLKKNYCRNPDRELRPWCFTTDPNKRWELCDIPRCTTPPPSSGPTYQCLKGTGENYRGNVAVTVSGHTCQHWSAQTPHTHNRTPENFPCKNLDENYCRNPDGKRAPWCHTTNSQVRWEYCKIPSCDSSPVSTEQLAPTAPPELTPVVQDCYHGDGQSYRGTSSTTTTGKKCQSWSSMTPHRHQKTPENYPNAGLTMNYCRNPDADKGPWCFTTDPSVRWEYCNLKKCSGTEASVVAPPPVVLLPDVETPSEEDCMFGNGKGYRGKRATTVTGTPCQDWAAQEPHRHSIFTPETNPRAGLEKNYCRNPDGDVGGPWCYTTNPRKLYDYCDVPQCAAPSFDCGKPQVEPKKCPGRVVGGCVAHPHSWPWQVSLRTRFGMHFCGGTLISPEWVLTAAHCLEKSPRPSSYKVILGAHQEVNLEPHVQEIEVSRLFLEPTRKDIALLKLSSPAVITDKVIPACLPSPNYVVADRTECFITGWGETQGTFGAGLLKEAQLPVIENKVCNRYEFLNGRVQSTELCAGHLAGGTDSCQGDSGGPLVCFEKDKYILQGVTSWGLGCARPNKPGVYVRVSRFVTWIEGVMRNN
Kind of experiment: substrate peptide degradation inhibition.

Experiment [14] concerns the target tissue plasminogen activator human (human, UniProt P00750 36-562). Description: substrate peptide degradation inhibition.
Experiment [15] addresses active mMMP-9(cat)_FLAG_Avi (UniProt P41245 108-450). Description: enzyme inhibition; substrate peptide.
For experiment [16], the target named is biotin-labeled active hMMP-9(cat)_FLAG_Avi (UniProt P14780 107-449, biotin on the Avi tag (biotin ligase BirA)). Description: ELISA.
Chain of biotin-labeled active hMMP-9(cat)_FLAG_Avi (P14780 other isoform, or with tags, fused parts or gaps): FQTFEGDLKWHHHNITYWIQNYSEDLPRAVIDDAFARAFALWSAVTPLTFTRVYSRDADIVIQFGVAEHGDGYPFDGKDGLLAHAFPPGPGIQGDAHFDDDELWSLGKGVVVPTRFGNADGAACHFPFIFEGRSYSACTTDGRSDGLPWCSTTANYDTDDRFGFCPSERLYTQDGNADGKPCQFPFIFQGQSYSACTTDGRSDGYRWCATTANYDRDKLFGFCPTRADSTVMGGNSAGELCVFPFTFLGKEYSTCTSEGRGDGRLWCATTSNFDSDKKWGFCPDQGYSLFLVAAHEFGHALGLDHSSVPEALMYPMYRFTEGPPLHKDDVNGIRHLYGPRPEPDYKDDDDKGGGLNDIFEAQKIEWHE

Chain of active hMMP-9(cat)_His6 (P14780 107-449): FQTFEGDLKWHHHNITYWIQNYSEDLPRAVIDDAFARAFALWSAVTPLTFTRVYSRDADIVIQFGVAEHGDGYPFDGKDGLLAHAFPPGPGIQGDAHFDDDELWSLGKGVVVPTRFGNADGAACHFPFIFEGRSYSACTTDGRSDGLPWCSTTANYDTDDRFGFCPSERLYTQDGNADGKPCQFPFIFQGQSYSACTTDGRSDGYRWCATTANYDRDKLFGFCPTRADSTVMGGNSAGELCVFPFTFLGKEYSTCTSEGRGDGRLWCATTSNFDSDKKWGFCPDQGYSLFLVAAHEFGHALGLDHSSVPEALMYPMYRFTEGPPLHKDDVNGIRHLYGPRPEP
Chain of tissue plasminogen activator human (P00750 36-562): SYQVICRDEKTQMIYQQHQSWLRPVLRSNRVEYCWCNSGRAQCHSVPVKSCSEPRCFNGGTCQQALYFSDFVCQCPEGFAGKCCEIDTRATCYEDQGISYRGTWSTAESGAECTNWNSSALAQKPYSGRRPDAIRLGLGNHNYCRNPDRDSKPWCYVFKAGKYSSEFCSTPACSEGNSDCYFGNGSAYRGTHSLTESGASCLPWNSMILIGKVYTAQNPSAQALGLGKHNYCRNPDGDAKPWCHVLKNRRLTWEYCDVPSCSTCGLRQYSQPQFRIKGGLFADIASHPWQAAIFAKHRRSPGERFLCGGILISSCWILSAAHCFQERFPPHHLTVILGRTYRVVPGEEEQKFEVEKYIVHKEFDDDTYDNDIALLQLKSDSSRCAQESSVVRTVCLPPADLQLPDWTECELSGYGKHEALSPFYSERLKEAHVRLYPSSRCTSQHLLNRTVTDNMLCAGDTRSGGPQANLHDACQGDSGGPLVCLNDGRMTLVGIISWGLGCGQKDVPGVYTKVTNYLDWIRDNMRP
Chain of MT2-MMP, Catalytic Domain, Human, Recombinant, E. coli (P51511 132-304): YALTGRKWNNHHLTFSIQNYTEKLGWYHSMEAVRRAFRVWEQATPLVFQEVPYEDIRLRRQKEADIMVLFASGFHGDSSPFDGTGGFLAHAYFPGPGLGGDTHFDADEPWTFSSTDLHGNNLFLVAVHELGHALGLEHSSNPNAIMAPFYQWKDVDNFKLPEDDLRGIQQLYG
Chain of active mMMP-9(cat)_FLAG_Avi (P41245 other isoform, or with tags, fused parts or gaps): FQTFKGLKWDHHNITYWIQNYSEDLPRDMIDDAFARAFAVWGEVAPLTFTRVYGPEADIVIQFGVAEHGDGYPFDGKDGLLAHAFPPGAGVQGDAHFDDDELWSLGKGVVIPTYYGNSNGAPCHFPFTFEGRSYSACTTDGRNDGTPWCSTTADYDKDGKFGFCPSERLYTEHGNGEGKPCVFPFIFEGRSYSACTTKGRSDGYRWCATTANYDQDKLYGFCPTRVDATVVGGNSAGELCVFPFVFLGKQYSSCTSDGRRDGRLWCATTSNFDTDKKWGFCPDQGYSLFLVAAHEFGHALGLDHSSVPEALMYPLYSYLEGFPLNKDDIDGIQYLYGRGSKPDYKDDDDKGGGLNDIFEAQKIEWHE

B1: active MMP-9-binding peptide M91005 (designed binder)
chain: GSGMKETAAAKFERQHMDSPDLGTDDDDKAMADIGSANSDPQFGLFSKYRTPNCRKRGGPSCQMSYNPVCGSDMSTYANECTLCMKIREGGHNIKIIRNGPCGASAAA
In the case of B1, the IC50 in experiment [1] is 8.2 nM; in experiment [2], more than 1000 nM; in [3], more than 1000 nM; in experiment [4] it was more than 1000 nM; in [5], more than 1000 nM; in experiment [6], more than 1000 nM. In addition, the IC50 in experiment [7], in experiment [8], in experiment [9], in [10], in [11] and in experiment [12] was more than 1000 nM in each case. In addition, the IC50 in [13] was more than 1000 nM; in experiment [14] it was more than 1000 nM; in experiment [15], 8.4 nM. Besides, a half-maximal response in experiment [16] (EC50) required 46 nM.
